A short description of this data set: yeast display, Sf9 membrane polyspecificity reagent, FACS + sequencing; frameworks hold sequencing errors. An outline of the steps: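 A nanobody's polyreactivity label depends on the gate it was sorted from. Yeast display cells were stained with 10% biotinylated, detergent-solubilized Sf9 membrane reagent for 1 hour at 4 °C, enriched on streptavidin microbeads and sorted by FACS. The low and high (top ~1%) gates were set on anti-HA fluorescence for expression and streptavidin fluorescence for reagent binding.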
For the sequence “QVQLVESGGGLVQAGGSLRLSCAASGFTFVGNTMGWYRQAPGKERELVAAIRGRDGRTYYADSVKGRFTISRDNAKNTVYLQMNSLKPEDTAVFYCNAVGFVWYFDVYSYFTEIKYDYWGQGTQVTVSS”, the “polyreactivity (PSR sort gate)” value is on record as “low polyreactivity”. For the sequence “QVQLVESGGGLVQAGGSLRLSCAASGFTFVGYAMGWYRQAPGKERELVAAITGRGGTTYYADSVKGRFTISRDNAKNTVYLQMNSLKPEDTAVYYSNADSYITYVQYLYARSWMDYWGQGTQVTVSS”, the “polyreactivity (PSR sort gate)” value is “low polyreactivity”. As to “QVQLVESGGGLVQAGGSLRLSCAASGFTFVINDMGLYRQAPGKERELVADITSGGDTYYADSVKGRFTISRDNAKNTVYLQMNSLKPEDTAVYYCAADIYPDWIYLLYGYWGQGTQVTVSS”, the “polyreactivity (PSR sort gate)” value is listed as “low polyreactivity”.

Consider “QVQLVESGGGLVQAGGSLRLSCAASGFTFVKNAMGWYRQAPGKERELVAAITGSAGRTYYADSVKGRFTISRDNAKNTVYLQMNSLKPEDTAVYYCAAPRFAAPRRIGYDWGQGTQVTVSS”, for which the “polyreactivity (PSR sort gate)” value is “high polyreactivity”. For the sequence “QVQLVESGGGLVQAGGSLRLSCAASGFTFVKYAMGWYRQAPGKERELVAAISRSGGRTYYADSVKGRFTISLDNAKNTVYLQMNSLKPEDTAVYYCAADVATTHELDYWGQGTQVTVSS”, the “polyreactivity (PSR sort gate)” value is “high polyreactivity”. For “QVQLVESGGGLVQAGGSLRLSCAASGFTFVLYAMGWYRQAPGKERELVATITSSGRTNYADSVKGRFTISRDNAKNTVYLQMNSLKPEDTAVYYCAARGGRRYDYWGQGTQVTVSS”, the “polyreactivity (PSR sort gate)” value is “high polyreactivity”.

Consider “QVQLVESGGGLVQAGGSLRLSCAASGFTFVRNVMGWYRQAPGKERELVAAINTGGTTDYADSVKGRFTISRDNAKNTVYLQMNSLKPEDTAVYNCNADYDSQYHYLLRYDYWGQGSQVTVSS”, for which the “polyreactivity (PSR sort gate)” value is on record as “low polyreactivity”. The same measure for “QVQLVESGGGLVQAGGSLRLSCAASGFTFVRYAMGWYRQAPGKEREFVASISARGGNTFYADSVKGRFTISRDNAKNTVYLQMNSLKPEDTAVYYCNALTYFKRSEYYWGQGTQVTVSS”: “high polyreactivity”; for “QVQLVESGGGLVQAGGSLRLSCAASGFTFVRYVMGWYRQAPGKERELVAAISRSGGSTHYADSVKGRFTISRDNAKNTVYLQMNSLKPEDTAVYYCNAYGYRHRGNGYWGQGTQVTVSS”: “high polyreactivity”; for “QVQLVESGGGLVQAGGSLRLSCAASGFTFVSYAMGWSRQAPGKERELVATITSDGSTNYADSVKGRFTISRDNAKNTVYLQMNSLKPEDTAVYYCAADIHYYPGYLAYDYWGQGTQVTVSS”: “low polyreactivity”. In the case of “QVQLVESGGGLVQAGGSLRLSCAASGFTFVSYAMGWYRQEPGKEREFVASISARGGNTFYADSVKGRFTISRDNAKNTVYLQMNSLKPEDTAVYYCAKRGPYGTGYGYWGQGTQLTVSS” it was “high polyreactivity”; in that of “QVQLVESGGGLVQAGGSLRLSCAASGFTFVVNAMGWYRQAPGKERELVATIRSNGGSTYYADSVKGRFTISRDNAKNTVYLQMNSLKPEDTAVYYCAATATDTKYGYWGQGTQVTVSS”, “low polyreactivity”. In the case of “QVQLVESGGGLVQAGGSLRLSCAASGFTFVYNAMGWYRQAPGKERELVAAISSRGGSTFYADSVKGRFTISRDNAKNTVYLQMNSLKPEDTAVYYCNAVPGWTYDYWGQGTQVTVSS”, the “polyreactivity (PSR sort gate)” value is listed as “high polyreactivity”.

Take “QVQLVESGGGLVQAGGSLRLSCAASGFTFVYYTMGWYRQAPGKERELVAAITSRGGNTYYADSVKGRFTISRDNAKNTVYLQMNSLKPEDTAVYYCAARRITTYYYWGQGTQVTVSS”: the “polyreactivity (PSR sort gate)” value was “high polyreactivity”. Regarding “QVQLVESGGGLVQAGGSLRLSCAASGFTFVYYVMGWYRPAPGKERELVAAISWSGGRTYYADSVKGRFTISRDNAKNTVYLQMNSLKPDDTAVYYCAAVRPYYYPLPTVPNLPYDYWGQGTQVTVSS”, the “polyreactivity (PSR sort gate)” value is listed as “high polyreactivity”. “QVQLVESGGGLVQAGGSLRLSCAASGFTFVYYVMGWYRQAPGKERELVAAITYSGGSTYYADSVKGRFTISRDNAKNTVYLHMNSLKPEDTAVYYCAKEVQTYWYHYYYWGQGTQVTVSS”: the “polyreactivity (PSR sort gate)” value is given as “high polyreactivity”. The same measure for “QVQLVESGGGLVQAGGSLRLSCAASGFTFWAYAMGWYRPAPGKERELVARISGSGGRTYYADSVKGRFTISRDNAKNTVYLQMNSLKPEDTAVYYCAARRYYYPVGYDYWGEGTQVTVSS”: “high polyreactivity”; for “QVQLVESGGGLVQAGGSLRLSCAASGFTFWDNAMGWYRQAPGKERELVAAISRRGGTTYYADSVKGRFTISRDNAKNTVYLQMNRLKPEATAVYYCNARRRSVPYRYDFWGQGTQVTVSS”: “high polyreactivity”.

As to “QVQLVESGGGLVQAGGSLRLSCAASGFTFWDYAMGWYRQAPGKERELVAAISSRGTRTYYADSVKGRFTISRDNAKNTVYFQMNSLKPEDTAVYYCATAIPDPDYIHNYWGQGTQVTVSS”, the “polyreactivity (PSR sort gate)” value is recorded as “high polyreactivity”.

“QVQLVESGGGLVQAGGSLRLSCAASGFTFWDYAMGWYRQAPGKERELVAAISSRGTRTYYADSVKGRFTISRDNAKNTVYLQMNSLKPEDTAVYYCATAIPDPDYIHNYWGQGTQVTVSS”: the “polyreactivity (PSR sort gate)” value is “high polyreactivity”.

For “QVQLVESGGGLVQAGGSLRLSCAASGFTFWDYAMGWYRQAPGKERELVATISVGGGSTYYADSVKGRFTISRDNSKNSVYLQMNSLKPEDTAVYYCAADRSYYLAGYDYWGQGTQVPVSS”, the “polyreactivity (PSR sort gate)” value is reported as “low polyreactivity”.

For the sequence “QVQLVESGGGLVQAGGSLRLSCAASGFTFWDYTMGWYRQAPGKERELVAAISSSGGGTYYADSVKGRFTISRDNAKNTVYLQMNSLKPVDTAVYYCAASVWYYPMDYWGQGTQVTVSS”, the “polyreactivity (PSR sort gate)” value is “low polyreactivity”. In the case of “QVQLVESGGGLVQAGGSLRLSCAASGFTFWEYAMGWYRQAPGKERELVAAIRDRGVNTYYADSVKGRFTISRDNAKNTVYLQMNSLKPVDTAVYYCAKSTRRGGVALGEYDYWGQGSQVTVSS” it was “low polyreactivity”; in that of “QVQLVESGGGLVQAGGSLRLSCAASGFTFWGNAMGWYRPAPGKERELVAAITDTGSTNYADSVKGRFTISRDNAKNTVYLQMNSLKPEDTAVYYCAKDKAYYDWGQTNGYWGQGTQVTVSS”, “low polyreactivity”. “QVQLVESGGGLVQAGGSLRLSCAASGFTFWGYTMGWYRQAPGKERELVAAITSTGSTYYAYSVKGRFTISRDNAKNTVYLQMNSLKPEDTSVYYCATARSYLTYSYHYDYWGQGTQVTVSS”: the “polyreactivity (PSR sort gate)” value is on record as “low polyreactivity”. In the case of “QVQLVESGGGLVQAGGSLRLSCAASGFTFWKYAMGWYRQAPGKERELVATITSSGDNTYYADSVKGRFTISRDNAKNNVYLQMNSLKPEDTAVYYCAADNGYHYNFDYWGQGTQVTVSS”, the “polyreactivity (PSR sort gate)” value was “low polyreactivity”.

Turning to “QVQLVESGGGLVQAGGSLRLSCAASGFTFWLYAMGWYRQAPGKERELVAAIDWDCGTYYADSVKGRFTISRDNAKNTVYLQMNSLKPEDTAVYYCAARYRYYYTRYDYWGQGTQVTVSS”, the “polyreactivity (PSR sort gate)” value is recorded as “high polyreactivity”. With “QVQLVESGGGLVQAGGSLRLSCAASGFTFWRNAMGWYRQAPGKERELVAAISASGGSTYYADSVKGRFTISRDYAKNTVYLQKNSLKPEDTAVYYCAADTQGFYRYDYWGQGTQVTVSS”, the “polyreactivity (PSR sort gate)” value is reported as “low polyreactivity”. As for “QVQLVESGGGLVQAGGSLRLSCAASGFTFWRNTMGWSRQAPGKERELVAAIDRSGSSTYYADSEKGRFTISRDNATNTVYLQMNSLKPEDTAVYYCAAAHTYFTPYGDYWGQGTQVTVSS”, the “polyreactivity (PSR sort gate)” value is “low polyreactivity”. Turning to “QVQLVESGGGLVQAGGSLRLSCAASGFTFWRNVMGWYRQAPGKERELVAAITRSGGSTYYADSVKGRFTISRDNAKNTVYLQMNSLKPEDTAVYYCNAVRHGGYDYLGQGTQVTVSS”, the “polyreactivity (PSR sort gate)” value is recorded as “high polyreactivity”. On to “QVQLVESGGGLVQAGGSLRLSCAASGFTFWTNAMGWYRQAPGKERELVAAITSSGGTTYYADSVKGRFTISRDNAKNTVYLQMNSLKPEDTAVYYCAAELGGYVASYYYPGYDYWGQGTQVTVSS”, for which the “polyreactivity (PSR sort gate)” value is recorded as “low polyreactivity”. With “QVQLVESGGGLVQAGGSLRLSCAASGFTFWVYAMGWYRQAPGKEREFVAAISGIGDDTNYADSVKGRFTISRDNAKNTVYLQMNSLKPEDTAVYYCATVALRYYGVTEFDYWGQGTQVTVSS”, the “polyreactivity (PSR sort gate)” value was “high polyreactivity”. The same measure for “QVQLVESGGGLVQAGGSLRLSCAASGFTFWWYTMGWYRQAPGKERELVAAITWSGSRTYYADSVKGRFTISRDNAKNTVYLQMNSLKPEDTAVYYCAATYLKVHGEYDYWGQGTQVTVSS”: “high polyreactivity”; for “QVQLVESGGGLVQAGGSLRLSCAASGFTFWYNTMGWYRQAPGKERELVAAINRGGGRTYYADSVKGRFTISRDNAKNTVYLQMNSLKPEDTAVYYCAKKDYYSKVGGPQSEYDYWGQGTQVTVSS”: “low polyreactivity”; for “QVQLVESGGGLVQAGGSLRLSCAASGFTFWYYAMGWYRQAPGKERELVAAISRSGTSTYYADSVKGRFTISRDNAKNTVFLQMNCLKPEDSAVYYCNVLRVNSITYLMDYWVQGTQVTVSS”: “high polyreactivity”. With “QVQLVESGGGLVQAGGSLRLSCAASGFTFWYYAMGWYRQAPGKERELVASISSIGGSTYYADSVKGRFTISRDNAKNTVYLQMNSLKPEDTAVYYCAADRSSNGLMPGSKNEYWGQGTEVTVSS”, the “polyreactivity (PSR sort gate)” value is reported as “high polyreactivity”.

On to “QVQLVESGGGLVQAGGSLRLSCAASGFTFWYYAMGWYRQAPGKERELVATISRGGGSTYYADSVKGRFTISRDNAKNTVYLQMNSLKPEDTAVYYCNAALTRVSRFWGGDYYYWGQGTQVTVSS”, for which the “polyreactivity (PSR sort gate)” value was “high polyreactivity”. With “QVQLVESGGGLVQAGGSLRLSCAASGFTFWYYDMGWYRQAPGKERELVAAISRSGTSTYYADSVKGRFTISRDNAKNTVYLQMNSLKPEDTAVYYCNKVRNTRSYDYWGQGTQVTVSS”, the “polyreactivity (PSR sort gate)” value is listed as “high polyreactivity”. With “QVQLVESGGGLVQAGGSLRLSCAASGFTFYAYAMGWYREAPGKERELVATIRRSTGSTYYADSVKGRFTISRDNAKNTVYLQMNSLKQQDTAVYYFATRVWFPITSYDYWGQGTQVTVSS”, the “polyreactivity (PSR sort gate)” value is on record as “low polyreactivity”. Turning to “QVQLVESGGGLVQAGGSLRLSCAASGFTFYAYAMGWYRQAPGKERELVAAITWDDDSTSYADSVKGRFTISRDNAKNTVYLQMNSLKPEDTAVYYCAADSIRHRRYKYDYWGQGTQVTVSS”, the “polyreactivity (PSR sort gate)” value is “low polyreactivity”. Turning to “QVQLVESGGGLVQAGGSLRLSCAASGFTFYDYAMGRYIQAPGKERELVAGINSGDSTYYADSVKGRFTISRDNAKNSVYLLMNSLKPEDSAVYYCAADWAWLQWAYDYWGQGTQVTVSS”, the “polyreactivity (PSR sort gate)” value is “low polyreactivity”.

The values are drawn from the nanobody polyreactivity screen of Harvey et al. (2022).
